Holding throughout (test): EMSA
Holding throughout (details): tags: MBP fusion
(In general: In EMSA bound probe runs differently from free probe, usually more slowly.)

In one data set the target is ZFP SBS#1204 (synthetic). In outline:
(§1)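 Purified ZFP was titrated against labeled double-stranded target (1 nM or lower, at least 10-fold below expected Kd) carrying the natural binding site with flanks. Binding buffer was 10 mM Tris pH 7.5, 100 mM KCl, 1 mM MgCl2, 0.1 mM ZnCl2, 5 mM DTT, 10% glycerol, 0.02% BSA, with equilibration for at least 45 min. Bound and free target were separated on a 10% polyacrylamide gel.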

The target of a further data set is ZFP SBS#1203 (synthetic). The gist of the method: as §1
A further data set concerns the target T1, ZFP SBS#1194 (synthetic).
T1 chain: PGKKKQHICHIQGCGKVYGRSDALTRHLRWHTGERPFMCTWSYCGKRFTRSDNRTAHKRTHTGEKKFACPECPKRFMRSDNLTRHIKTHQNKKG
In outline:
as §1

The target in a further data set is T2, ZFP SBS#1195 (synthetic).
T2 chain: T1 chain with D80S
In outline:
as §1

The target in the next data set is T3, ZFP SBS#1213 (synthetic).
T3 chain: T1 chain with A23N, R50Q, D52S, R54L, T55V, A56R, R78Q, D80G
The gist of the method: as §1

For a further data set, the target named is T4, ZFP SBS#1104 (synthetic).
T4 chain: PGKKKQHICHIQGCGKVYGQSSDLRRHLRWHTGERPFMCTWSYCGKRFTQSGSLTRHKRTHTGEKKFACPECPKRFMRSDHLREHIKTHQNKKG
In outline:
as §1

A further data set addresses ZFP SBS#1205 (synthetic). The gist of the method: as §1
Another data set deals with ZFP SBS#483 (synthetic). The gist of the method: as §1
Sequence of ZFP SBS#483 (synthetic) (chain, as listed by the source): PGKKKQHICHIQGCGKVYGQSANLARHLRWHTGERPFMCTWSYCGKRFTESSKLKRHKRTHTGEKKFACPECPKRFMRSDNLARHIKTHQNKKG
Another data set has as its target T5, ZFP SBS#1197 (synthetic).
T5 chain: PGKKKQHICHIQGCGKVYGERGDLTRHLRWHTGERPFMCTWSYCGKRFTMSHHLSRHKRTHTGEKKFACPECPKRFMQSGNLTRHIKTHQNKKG
In outline: as §1

For the next data set, the target named is T6, ZFP SBS#1209 (synthetic).
T6 chain: T4 chain with Q20R, S22D, D23E, R25T, G52S, S53N, T55V, H81T
In outline: as §1

Another data set deals with T7, ZFP SBS#1116 (synthetic).
T7 chain: T4 chain with Q20R, S22D, D23E, R25T, G52S, S53N, T55V, H81E
In outline: as §1

A further data set addresses ZFP SBS#1206 (synthetic). In outline:
as §1

A further data set addresses ZFP SBS#1107 (synthetic). In outline: as §1
For a further data set, the target named is T8, ZFP SBS#1222 (synthetic, UniProt P08047).
T8 chain: T4 chain with Q20D, S21R, D23H, R25A, Q50R, G52D, S53N, T55A, H81N
In outline: as §1

The target in the next data set is ZFP SBS#1219 (synthetic). The gist of the method:
as §1

Another data set addresses ZFP SBS#1221 (synthetic). The gist of the method: as §1
For the next data set, the target named is ZFP SBS#1220 (synthetic). In outline: as §1
Sequence of ZFP SBS#1220 (synthetic) (chain, as listed by the source): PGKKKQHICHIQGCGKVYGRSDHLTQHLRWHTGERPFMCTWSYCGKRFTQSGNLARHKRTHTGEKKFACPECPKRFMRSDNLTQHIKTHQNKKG
Another data set concerns the target T9, ZFP SBS#1127 (synthetic).
T9 chain: T4 chain with D23A, R25A, Q50R, G52D, S53H, H81N
The gist of the method:
as §1

The target of the next data set is T10, ZFP SBS#1212 (synthetic, UniProt P08047).
T10 chain: T4 chain with Q20T, S21T, D23A, R25T, Q50R, G52D, S53H, H81N
The gist of the method:
as §1

The target in the next data set is ZFP SBS#1179 (synthetic). In outline:
as §1

The next data set addresses ZFP SBS#1117 (synthetic). In outline: as §1
The target of the next data set is ZFP SBS#1211 (synthetic). The gist of the method: as §1
Sequence of ZFP SBS#1211 (synthetic) (chain, as listed by the source): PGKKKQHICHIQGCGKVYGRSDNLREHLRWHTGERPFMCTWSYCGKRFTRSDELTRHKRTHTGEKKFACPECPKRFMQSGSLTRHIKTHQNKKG
In a further data set the target is ZFP SBS#1217 (synthetic). The gist of the method: as §1
Sequence of ZFP SBS#1217 (synthetic) (chain, as listed by the source): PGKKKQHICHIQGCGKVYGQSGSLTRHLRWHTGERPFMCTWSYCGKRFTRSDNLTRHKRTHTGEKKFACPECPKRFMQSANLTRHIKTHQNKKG
Another data set deals with ZFP SBS#1150 (synthetic). The gist of the method:
as §1

A further data set addresses ZFP SBS#498 (synthetic, UniProt P08047). The gist of the method: as §1
Another data set concerns the target T11, ZFP SBS#1108 (synthetic).
T11 chain: T4 chain with S22G, D23H, R25A, Q50T, S53E, T55V, H81N
In outline:
as §1

Another data set concerns the target T12, ZFP SBS#1207 (synthetic).
T12 chain: T4 chain with S21R, S22A, D23H, R25E, Q50T, S53E, T55V, H81N
The gist of the method:
as §1

For a further data set, the target named is T13, ZFP SBS#1101 (synthetic).
T13 chain: T4 chain with Q20T, S21T, D23A, R25T, S51R, G52A, S53H, T55E, H81A, E84Q
In outline: as §1

The next data set addresses T14, ZFP SBS#1214 (synthetic).
T14 chain: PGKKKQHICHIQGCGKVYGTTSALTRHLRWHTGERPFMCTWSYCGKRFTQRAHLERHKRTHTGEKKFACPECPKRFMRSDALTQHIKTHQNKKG
In outline: as §1

For a further data set, the target named is T15, ZFP SBS#1202 (synthetic, UniProt P08047).
T15 chain: T4 chain with Q20D, S21R, D23N, R26T, Q50R, G52D, S53N, H81A
The gist of the method: as §1

In the next data set the target is ZFP SBS#937 (synthetic). In outline:
as §1

In a further data set the target is ZFP SBS#938 (synthetic, UniProt P08047). The gist of the method: as §1
Sequence of ZFP SBS#938 (P08047 other isoform, or with tags, fused parts or gaps): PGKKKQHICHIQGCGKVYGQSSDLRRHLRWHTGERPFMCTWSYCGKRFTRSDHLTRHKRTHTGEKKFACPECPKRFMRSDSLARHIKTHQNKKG
For the next data set, the target named is ZFP SBS#1215 (synthetic, UniProt P08047). The gist of the method: as §1
Sequence of ZFP SBS#1215 (P08047 other isoform, or with tags, fused parts or gaps): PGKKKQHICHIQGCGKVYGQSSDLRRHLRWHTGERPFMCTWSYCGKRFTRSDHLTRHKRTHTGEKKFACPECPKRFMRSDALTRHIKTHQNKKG
For the next data set, the target named is ZFP SBS#1218 (synthetic). In outline:
as §1

For a further data set, the target named is T16, ZFP SBS#1199 (synthetic).
T16 chain: T1 chain with A23N, L24R, R26A, R54L, A56R, N81A, R84Q
The gist of the method:
as §1

Another data set concerns the target T17, ZFP SBS#1201 (synthetic).
T17 chain: T1 chain with A23N, L24R, R26A, D52H, R54L, A56R, N81A, R84Q
The gist of the method: as §1

For another data set, the target named is T18, ZFP SBS#1200 (synthetic).
T18 chain: T1 chain with A23N, L24R, R26A, D52S, R54L, A56R, N81A, R84Q
In outline: as §1

The results in this text go back to patent US20030068675, “Position dependent recognition of GNN nucleotide triplets by zinc fingers” (published 2003).

Changes are numbered by the printed parent chain.

Sequence of ZFP SBS#1221 (synthetic) (chain, as listed by the source): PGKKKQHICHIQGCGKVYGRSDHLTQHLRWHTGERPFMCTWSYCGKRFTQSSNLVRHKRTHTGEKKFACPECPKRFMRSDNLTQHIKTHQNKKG
Sequence of ZFP SBS#498 (P08047 other isoform, or with tags, fused parts or gaps): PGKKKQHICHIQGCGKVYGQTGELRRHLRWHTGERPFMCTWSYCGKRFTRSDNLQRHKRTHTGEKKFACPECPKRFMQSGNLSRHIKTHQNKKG
Sequence of ZFP SBS#1206 (synthetic) (chain, as listed by the source): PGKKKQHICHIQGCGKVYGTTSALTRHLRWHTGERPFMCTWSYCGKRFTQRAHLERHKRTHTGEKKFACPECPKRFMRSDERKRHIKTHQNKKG
Sequence of ZFP SBS#1179 (synthetic) (chain, as listed by the source): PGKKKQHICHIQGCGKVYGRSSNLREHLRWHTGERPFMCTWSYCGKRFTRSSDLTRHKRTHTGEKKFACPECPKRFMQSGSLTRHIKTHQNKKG
Sequence of ZFP SBS#937 (synthetic) (chain, as listed by the source): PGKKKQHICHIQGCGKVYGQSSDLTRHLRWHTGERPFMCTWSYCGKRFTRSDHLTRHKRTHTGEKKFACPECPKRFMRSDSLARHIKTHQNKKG
Sequence of ZFP SBS#1219 (synthetic) (chain, as listed by the source): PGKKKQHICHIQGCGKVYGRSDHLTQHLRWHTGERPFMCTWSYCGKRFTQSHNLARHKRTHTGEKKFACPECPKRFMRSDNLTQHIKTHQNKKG
Sequence of ZFP SBS#1117 (synthetic) (chain, as listed by the source): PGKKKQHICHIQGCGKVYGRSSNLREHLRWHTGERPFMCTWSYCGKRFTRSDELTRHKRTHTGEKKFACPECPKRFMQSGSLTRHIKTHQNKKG
Sequence of ZFP SBS#1150 (synthetic) (chain, as listed by the source): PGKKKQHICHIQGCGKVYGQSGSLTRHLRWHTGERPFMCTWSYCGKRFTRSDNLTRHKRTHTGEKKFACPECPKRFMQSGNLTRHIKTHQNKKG
Sequence of ZFP SBS#1205 (synthetic) (chain, as listed by the source): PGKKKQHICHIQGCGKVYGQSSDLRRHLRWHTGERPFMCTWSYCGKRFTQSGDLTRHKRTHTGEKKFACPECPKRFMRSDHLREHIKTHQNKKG
Sequence of ZFP SBS#1218 (synthetic) (chain, as listed by the source): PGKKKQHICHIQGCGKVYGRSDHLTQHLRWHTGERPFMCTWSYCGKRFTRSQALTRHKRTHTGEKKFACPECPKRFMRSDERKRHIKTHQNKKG
Sequence of ZFP SBS#1204 (synthetic) (chain, as listed by the source): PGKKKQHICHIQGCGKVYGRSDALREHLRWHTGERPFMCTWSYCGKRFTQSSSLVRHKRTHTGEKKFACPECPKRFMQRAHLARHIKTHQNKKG

B1: GGAGTACTG (dsDNA)
DNA 1: GGAGTACTG
DNA 2: CAGTACTCC
In the case of B1, the Kd – broadly, the free concentration of one partner at which half of the binding sites on the other are occupied at equilibrium, for simple one-to-one binding – turned out to be 4.38 nM in the data set with ZFP SBS#1204 and 2.94 nM with ZFP SBS#1203.

B2: GAGAAGGTG (dsDNA)
DNA 1: GAGAAGGTG
DNA 2: CACCTTCTC
For the molecule B2, the Kd stood at 2.19 nM with ZFP SBS#1194 and 2.8 nM in the data set with ZFP SBS#1195.

B3: GAAGAAGAG (dsDNA)
DNA 1: GAAGAAGAG
DNA 2: CTCTTCTTC
On to B3, for which the Kd in the data set with ZFP SBS#1213 came to 12.3 nM. In other words, the double-digit nanomolar range.

B4: CGGGCAGCT (dsDNA)
DNA 1: CGGGCAGCT
DNA 2: AGCTGCCCG
Regarding B4, the Kd in the data set with ZFP SBS#1104 was determined as 0.08 nM; with ZFP SBS#1205 it was 0.9 nM.

B5: GAGGGCGAAG (dsDNA)
DNA 1: GAGGGCGAAG
DNA 2: CTTCGCCCTC
On to B5, for which, in the data set with ZFP SBS#483, binding was put at a Kd of 130 nM.

B6: GAAGGTGCC (dsDNA)
DNA 1: GAAGGTGCC
DNA 2: GGCACCTTC
Take B6: in the data set with ZFP SBS#1197, the Kd was found to be 14.8 nM.

B7: CCGGAAGCG (dsDNA)
DNA 1: CCGGAAGCG
DNA 2: CGCTTCCGG
On to B7, for which the equilibrium dissociation constant (Kd) with ZFP SBS#1209 stood at 19.3 nM; with ZFP SBS#1116 it was 12.3 nM.

B8: GCGGGAGTT (dsDNA)
DNA 1: GCGGGAGTT
DNA 2: AACTCCCGC
Regarding B8, the Kd amounted to 0.034 nM with ZFP SBS#1206 and 0.06 nM with ZFP SBS#1107.

B9: CAGGAGGGC (dsDNA)
DNA 1: CAGGAGGGC
DNA 2: GCCCTCCTG
Molecule B9 gave a Kd in the data set with ZFP SBS#1222 of 0.155 nM.

B10: AAGGAAAGG (dsDNA)
DNA 1: AAGGAAAGG
DNA 2: CCTTTCCTT
With B10, the Kd with ZFP SBS#1219 was 0.68 nM; with ZFP SBS#1221, 1.4 nM; with ZFP SBS#1220, 0.175 nM.

B11: CAGGGGGTT (dsDNA)
DNA 1: CAGGGGGTT
DNA 2: AACCCCCTG
Regarding B11, the Kd with ZFP SBS#1127 came to 0.1 nM; with ZFP SBS#1212, 0.05 nM.

B12: GCAGCGCAG (dsDNA)
DNA 1: GCAGCGCAG
DNA 2: CTGCGCTGC
For B12, the Kd is 2.73 nM with ZFP SBS#1179, 2.85 nM with ZFP SBS#1117 and 6.5 nM with ZFP SBS#1211.

B13: GAAGAGGCA (dsDNA)
DNA 1: GAAGAGGCA
DNA 2: TGCCTCTTC
As to B13, the Kd with ZFP SBS#1217 was found to be 0.004 nM; with ZFP SBS#1150 it was 0.004 nM; in the data set with ZFP SBS#498 it was 30 nM.

B14: CAGGCTGGA (dsDNA)
DNA 1: CAGGCTGGA
DNA 2: TCCAGCCTG
As for B14, the values for the Kd with ZFP SBS#1108 and in the data set with ZFP SBS#1207 were 0.007 nM and 0.45 nM, respectively.

B15: ATGGGAGTT (dsDNA)
DNA 1: ATGGGAGTT
DNA 2: AACTCCCAT
Turning to B15, the Kd with ZFP SBS#1101 turned out to be 0.065 nM; with ZFP SBS#1214, 0.46 nM.

B16: CTGGAGTAC (dsDNA)
DNA 1: CTGGAGTAC
DNA 2: GTACTCCAG
B16 displayed a dissociation constant (Kd) in the data set with ZFP SBS#1202 of 2.83 nM. This lies in the single-digit nanomolar range.

B17: GTGGGGGCT (dsDNA)
DNA 1: GTGGGGGCT
DNA 2: AGCCCCCAC
As for B17, the Kd is 0.03 nM in the data set with ZFP SBS#937, 0.049 nM with ZFP SBS#938 and 0.003 nM with ZFP SBS#1215.

B18: GCGGTGAGG (dsDNA)
DNA 1: GCGGTGAGG
DNA 2: CCTCACCGC
As for B18, in the data set with ZFP SBS#1218, the Kd amounted to 0.46 nM.

B19: ATGGAGAAG (dsDNA)
DNA 1: ATGGAGAAG
DNA 2: CTTCTCCAT
Consider B19, for which the figures for the Kd with ZFP SBS#1199, with ZFP SBS#1201 and in the data set with ZFP SBS#1200 were 3.43 nM, 14.8 nM and 16.9 nM, respectively.
